Consider 29 sequences from the supplement of paper PMC10567573.

± gives the standard deviation.

The series can be described thus: protein stability index of a GFP-peptide fusion (GPS, HEK-293T) (PSI 1-6); higher = more stable. The note with it: c terminus: a fixed tail appended.
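Also: 24-mer peptide tiles fused after GFP, lentivirally expressed, FACS-sorted into six equal bins by GFP/DsRed ratio, decoded by Illumina sequencing, PSI is the read-weighted mean bin number.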

As for RELNLPFGGMKSSGIGREGAKDSY [ALDH8A1], the protein stability index came to 4.08 ± 0.12 (treatment: DMSO) and 4.16 ± 0.37 (treatment: MLN4924 1 uM, 8 h).
For RERDSVPKPSVLFLHPDLGVGGAE [ALG2], the protein stability index runs as follows: (treatment: DMSO) 4.08 ± 0.41; (treatment: MLN4924 1 uM, 8 h) 4.21 ± 0.16.
As to RETASLKLLPHQPRIVEMKKGSNG [PDZK1], the protein stability index reads like this: (treatment: DMSO) 3.75 ± 0.31; (treatment: MLN4924 1 uM, 8 h) 3.85 ± 0.32.
The corresponding values for REVAKELGIPYYETSVVAQFGIKD [RHOBTB2] are 3.2 ± 0.43 and 3.39 ± 0.27.
On to RFKDKSSEEAVREVHRLIEGKAPI [TPPP], for which the protein stability index was 4.6 ± 0.15 (treatment: DMSO) and 4.58 ± 0.18 (treatment: MLN4924 1 uM, 8 h).
The matching figures for RFLGEGHHRVQENQMDKARRHPQG [CHGB]: 4.5 ± 0.44 and 4.62 ± 0.38.
The matching figures for RFNLILADTNSDRLFTVNDVKVGG [DCAF4]: 2.44 ± 0.15 and 2.31 ± 0.4.
For RFQDLVLRMLEYEPAARISPLGAL [DYRK1B], the protein stability index (treatment: DMSO) turned out to be 2.67 ± 0.47 and the protein stability index (treatment: MLN4924 1 uM, 8 h) was determined as 2.4 ± 0.43.
The matching figures for RGDLWISWEEGMKVFEELLLDADW [CRY1]: 2.31 ± 0.41 and 2.4 ± 0.29.
The matching figures for RGKIHAFRGQILGFWEEERPFWEE [CCDC70]: 2.42 ± 0.14 and 2.47 ± 0.24.
The corresponding values for RGRMPPTQPTHGQFALTNGDPLNC [NR2F2] are 4.06 ± 0.12 and 3.97 ± 0.26.
As to RISSPQVEEGDSRFLANEVLQENY [WEE1], the protein stability index by setting is: (treatment: DMSO) 4.83 ± 0.44; (treatment: MLN4924 1 uM, 8 h) 4.91 ± 0.13.
As for RKAAKSLIKLGLERFHGVGILGFN [ACSBG2], the protein stability index runs as follows: (treatment: DMSO) 2.64 ± 0.49; (treatment: MLN4924 1 uM, 8 h) 2.51 ± 0.35.
The matching figures for RKFWWKNVKMIVLICVIVFIIILF [VAMP8]: 3.13 ± 0.32 and 2.98 ± 0.3.
As for RKRRRNGSKEGNHHSTQPKRNKRN [FAM104B], the protein stability index is 5.22 ± 0.38 (treatment: DMSO) and 4.92 ± 0.48 (treatment: MLN4924 1 uM, 8 h).
With RLALRQRLKCRSFKWYLENVYPEM [GALNT9], the protein stability index runs as follows: (treatment: DMSO) 1.95 ± 0.22; (treatment: MLN4924 1 uM, 8 h) 2.35 ± 0.18.
The matching figures for RLCLPALSQMGAQSSGKILLCPLC [TRIM15]: 2.35 ± 0.3 and 2.41 ± 0.21.
The corresponding values for RLKLLKDREVDAATSATSHTRSLN [FBF1] are 4.31 ± 0.32 and 4.41 ± 0.16.
The matching figures for RLLVGLALATLRVLRGLARPEHPP [TMEM175]: 2.02 ± 0.42 and 2.35 ± 0.43.
On to RLPFLSAFERQQVENRVVEEAKGL [ZBED1], for which the protein stability index is, setting by setting: (treatment: DMSO) 4.17 ± 0.14; (treatment: MLN4924 1 uM, 8 h) 4.2 ± 0.22.
Regarding RLRGKLRAEIENLHRTFDPHFLRV [MOG], the protein stability index reads like this: (treatment: DMSO) 2.48 ± 0.18; (treatment: MLN4924 1 uM, 8 h) 2.44 ± 0.28.
The matching figures for RLSVLLNLLPAAGELQESGLALCP [SMG5]: 2.02 ± 0.39 and 2.07 ± 0.18.
Take RLVESLSTQIRALTEQQEQLRGQL [RASAL3]: the protein stability index reads like this: (treatment: DMSO) 2.38 ± 0.21; (treatment: MLN4924 1 uM, 8 h) 2.34 ± 0.26.
The corresponding values for RLWSHRSYKARLPLRLFLIIANTM [SCD] are 2.29 ± 0.54 and 2.13 ± 0.23.
The matching figures for RLYRLKLEELTKLQNNCTSSITRQ [TMEM120A]: 2.62 ± 0.092 and 2.81 ± 0.3.
The corresponding values for RNGMASEGLNSSLCSPGHERRGTP [PSD2] are 4.72 ± 0.34 and 4.61 ± 0.28.
The sequence RNLARSQSVKMKDKLKIDLLPDGR [TAF7L] registered a protein stability index (treatment: DMSO) of 4.09 ± 0.28 and a protein stability index (treatment: MLN4924 1 uM, 8 h) of 4.25 ± 0.2.
The corresponding values for RNLSYTCRANRNCPIDQHHRNQCQ [NR2F2] are 3.32 ± 0.1 and 3.36 ± 0.24.
The corresponding values for RNLYAYIQKLTQIETGENVTGMEL [PTPRD] are 2.41 ± 0.26 and 2.29 ± 0.53.
